US20240209089A1
Where “and” joins values, the source holds several entries; their conditions need not be identical. Equal entries are not always repeated.

Experiments:
[1] = biological target: Fc protein; test: phage ELISA on coated Fc protein, blank control
[2] = biological target: CD8α-Fc fusion protein (human); test: phage ELISA on coated CD8α-Fc, blank control
Chain of CD8α-Fc fusion protein (human) (chain, as listed by the source): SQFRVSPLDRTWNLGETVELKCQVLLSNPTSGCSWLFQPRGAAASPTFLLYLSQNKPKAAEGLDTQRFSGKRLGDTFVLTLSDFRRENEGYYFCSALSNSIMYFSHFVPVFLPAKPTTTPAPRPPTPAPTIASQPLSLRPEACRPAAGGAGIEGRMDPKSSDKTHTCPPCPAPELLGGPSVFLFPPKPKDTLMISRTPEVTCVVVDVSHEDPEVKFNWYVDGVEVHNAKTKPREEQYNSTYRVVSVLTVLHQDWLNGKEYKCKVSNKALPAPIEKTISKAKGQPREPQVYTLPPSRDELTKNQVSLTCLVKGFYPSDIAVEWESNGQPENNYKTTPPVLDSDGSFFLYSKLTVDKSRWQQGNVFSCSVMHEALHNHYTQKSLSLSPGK

Substance: blank phage
- OD450 [1]: 0.093 and 0.068
- OD450 [2]: 0.067
